Laboratory results reported in US20190177410A1.
No end group written: not given here.

How the values were obtained:
[1] = target: full-length human APLNR (hAPLNR) (human) (UniProt P35414); assay: FACS on HEK293/CRE-luc/hAPLNR cells
[2] = target: T1, full length cynomolgus APLNR (MfAPLNR) (cynomolgus (Macaca fascicularis)); assay: FACS on HEK293/CRE-luc/MfAPLNR cells
T1 sequence: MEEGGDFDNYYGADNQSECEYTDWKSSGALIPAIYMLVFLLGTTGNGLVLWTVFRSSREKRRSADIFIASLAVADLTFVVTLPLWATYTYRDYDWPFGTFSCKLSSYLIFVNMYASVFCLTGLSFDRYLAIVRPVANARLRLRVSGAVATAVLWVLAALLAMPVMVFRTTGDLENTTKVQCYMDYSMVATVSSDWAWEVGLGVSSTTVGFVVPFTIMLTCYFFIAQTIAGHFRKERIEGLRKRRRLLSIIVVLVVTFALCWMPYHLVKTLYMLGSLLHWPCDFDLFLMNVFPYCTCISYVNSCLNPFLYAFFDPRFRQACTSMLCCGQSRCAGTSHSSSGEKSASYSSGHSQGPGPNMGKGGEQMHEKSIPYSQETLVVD

[3] = target: human Apelin receptor (hAPLNR) of PathHunter eXpress AGTRL1 CHO-K1 beta-Arrestin cells (human) (UniProt P35414); assay: cell-based or functional assay
[4] = target: full-length human APLNR (hAPLNR) (human) (UniProt P35414); assay: cell-based or functional assay

- Binding Ratio of Geom. Mean to Unstained Cells [1]: 12 fold
- Binding Ratio of Geom. Mean to Unstained Cells [2]: 3 fold
- % Activation at 500 nM antibody or Apelin-antibody fusion, PathHunter beta-Arrestin assay [3]: 6%
- % Activation at 100 nM mAb (7.5 uM Forskolin), CRE-luc [4]: 53%
- % Activation at 100 nM mAb (10 uM Forskolin), CRE-luc [4]: 37%
- EC50 [M] (7.5 uM Forskolin), CRE-luc [4]: 1.1e-08 M
- EC50 [M] (10 uM Forskolin), CRE-luc [4]: > 1e-07 M
Binder: QRPRLSHKGPMPFGGGGSGGGGSGGGGS-{VH of anti‑myc 9E10 antibody} (antibody, part only; not given: anti-myc antibody chains, part only, ends and bridges not checked) [Anti-myc 9E10 Nter VH fusion with (G4S)3 linker (Apelin fused to an irrelevant anti-myc antibody)]
